Assay results published in US20110262447A1.

Target: wild-type p53 core domain (human) (UniProt P04637)
Assay: ELISA, plates coated with recombinant core domain

Sequence of wild-type p53 core domain (human) (P04637 94-312): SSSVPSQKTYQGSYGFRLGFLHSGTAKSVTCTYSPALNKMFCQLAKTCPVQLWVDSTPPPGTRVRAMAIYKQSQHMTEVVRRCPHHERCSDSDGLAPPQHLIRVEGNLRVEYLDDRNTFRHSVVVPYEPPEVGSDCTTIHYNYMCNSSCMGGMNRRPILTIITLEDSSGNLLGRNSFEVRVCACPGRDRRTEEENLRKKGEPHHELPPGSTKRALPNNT

O.D.: 1.2 O.D.
Substance: mAb 1620 (antibody)
